Results taken from patent US20230025360A1, “PROCESSES FOR GENERATING SUPERIOR ANTI-TUMOR T-CELL EFFECTOR AND MEMORY CELLS” (MUSC Foundation for Research Development, priority 2016, published 2023).

How the values were obtained:
Splenic T cells [1] = experiment: Splenic T cells activated with anti-CD3/28 in presence of α-KG; assay type: cell-based, C57BL/6 mouse; details: α-KG pretreatment for three days
Method: Splenic T cells from C57BL/6 mouse were activated with anti-CD3/28 (each 2 μg/ml) either in absence or presence of α-KG for three days, after which: (FIG. 10A) Glucose uptake was determined using 2NBDG, and (FIG. 10B) Tscm phenotype was evaluated using CD62L and CD44 cell surface expression. N=2.

NF-KB = NF-KB activity after addition of recombinant Trx; assay type: cell-based
Pmel T cells = Pmel T cells activated with cognate antigen in presence of rTrx; assay type: cell-based
Method: (FIG. 7A) Three day activated gp100 epitope reactive splenic T cells from Pmel and Pmel−Trx mouse were re-stimulated overnight with cognate antigen, and supernatant was evaluated for secreted Trx by ELISA as per protocol. N=3 **p<0.005. (FIG. 7B) Pmel T cells were labeled with CFSE and stimulated with cognate antigen gp100 for three days. The expression of Trx was then determined using flurochrome conjugated antibody by gating on the cells in different phase of division. (FIG. 7C) CFSE labeled Pmel T cells were stimulated with cognate antigen in absence or presence of rTRx at various doses. Pmel T cells activated with cognate antigen in presence of rTrx (5 μg/ml) were used at day 3 to determine the expression of Trx (FIG. 7D), iGSH (FIG. 7E), pAMPK (FIG. 7F), stemness genes using qPCR (FIG. 7G), Annexin V upregulation after 4 hr of TCR restimulation with cognate antigen hgp100 or non-cognate ova peptide (FIG. 7H), and Glucose uptake using 2NBDG (FIG. 7I). N=2-3. Numerical values=MFI. *p<0.05, **p<0.01. (FIG. 7J) Melanoma epitope gp100 reactive T cells obtained from Pmel TCR transgenic mouse were activated with cognate antigen either in presence or absence of recombinant thioredoxin (rTrx) for three days before being adoptively transferred to the immunocompetent C57BL/6 recipient mice with ten day subcutaneously established murine melanoma B16-F10. Tumor measurements from two different experiments where Pmel and Pmel+rTrx were transferred to 9 recipient mice was compiled for this presentation. ***p value<0.01 obtained at last time point of the tumor measurement before the experiment was terminated.
To get an insight into the mechanism that may be responsible for the ability of co-injected Pmel T cells to respond to tumor rechallenge (as in FIG. 6), it was determined if Pmel−Trx secreted Trx upon antigen restimulation. […] Further, to determine how secreted Trx would have modulated the Pmel T cells, recombinant Trx was used during antigen induced in vitro Pmel activation and compared the phenotype with untreated Pmel and Pmel−Trx T cells. […] It has also been shown recently that Trx1-mediated reduction of Cys130 and Cys174 is essential for AMPK function, and decreased Trx levels could lead to oxidation of Cys130 and Cys174 by inducing aggregation that prevents its activation and phosphorylation by AMPK kinases (Shao D et al., 2014, Cell Metab, 19(2):232-45).

murine melanoma B16-F10 = experiment: Adoptive transfer of T cells activated in presence of rTrx; assay type: in vivo, C57BL/6 mice; details: gp100 reactive effector T cells generated in presence of rTrx
Method: (FIG. 7A) Three day activated gp100 epitope reactive splenic T cells from Pmel and Pmel−Trx mouse were re-stimulated overnight with cognate antigen, and supernatant was evaluated for secreted Trx by ELISA as per protocol. N=3 **p<0.005. (FIG. 7B) Pmel T cells were labeled with CFSE and stimulated with cognate antigen gp100 for three days. The expression of Trx was then determined using flurochrome conjugated antibody by gating on the cells in different phase of division. (FIG. 7C) CFSE labeled Pmel T cells were stimulated with cognate antigen in absence or presence of rTRx at various doses. Pmel T cells activated with cognate antigen in presence of rTrx (5 μg/ml) were used at day 3 to determine the expression of Trx (FIG. 7D), iGSH (FIG. 7E), pAMPK (FIG. 7F), stemness genes using qPCR (FIG. 7G), Annexin V upregulation after 4 hr of TCR restimulation with cognate antigen hgp100 or non-cognate ova peptide (FIG. 7H), and Glucose uptake using 2NBDG (FIG. 7I). N=2-3. Numerical values=MFI. *p<0.05, **p<0.01. […]
Further, it was determined if the strategy to activate and expand in presence of rTrx ex vivo would render tumor epitope reactive T cells with robust anti-tumor property.

Splenic T cells [2] = experiment: Homeostatic proliferation of IL2 or IL2+IL4 activated T cells in Rag1−/− recipients; assay type: in vivo, C57BL/6 mice; details: IL2+IL4 vs IL2, tracked at day 28
From the text: Splenic T cells from C57BL/6 mice on Thy1.1 or Thy1.2 background were activated for three days either in 1L2 or IL2+IL4 respectively, and mixed in 1:1 ratio before injecting i.v. in Rag1−/− recipients to determine any differences in homeostatic proliferation. Transferred T cells were tracked at day 28 by staining Thy1.1 and Th1.2 cells in various lymphoid and non-lymphoid tissues.

[3] = TCR re-stimulation with cognate antigen (hgp100), cultured three days with recombinant Trx

## O=C(O)CCC(=O)C(=O)O [α-ketoglutarate]
Splenic T cells [1]
  T cell phenotype (CD62L and CD44 cell surface expression): renders Tscm phenotype

B1: rTrx: recombinant thioredoxin added during ex vivo T cell activation (protein, UniProt P10599 2-105, looked up)
Thioredoxin: VKQIESKTAFQEALDAAGDKLVVVDFSATWCGPCKMIKPFFHSLSEKYSNVIFLEVDVDDCQDVASECEVKCMPTFQFFKKGQKVGEFSGANKEKLEATINELV
NF-KB
  NF-KB activity: decrease
Pmel T cells; CFSE labeled Pmel T cells, rTrx at various doses
  toxicity / cell division during T cell activation: non-toxic
Pmel T cells; [3]
  cell death as measured by Annexin V levels: reduced cell death
  glucose uptake (2NBDG): reduced
Pmel T cells; compared to activated Pmel T cells
  pAMPK: increased pAMPK
Pmel T cells; rTrx 5 μg/ml, day 3
  Lef1 gene expression (qPCR, stemness genes): up-regulation
  Tcf7 gene expression (qPCR, stemness genes): up-regulation
  expression of Trx: increased expression
  expression of iGSH: increased expression
Murine melanoma B16-F10
  survival of transferred T cells in vivo: survive longer
  tumor control: much improved tumor control

B2: IL4: cytokine used with IL2 to pretreat T cells for three days (protein, UniProt P05112 25-153, looked up)
Interleukin-4: HKCDITLQEIIKTLNSLTEQKTLCTELTVTDIFAASKNTTEKETFCRAATVLRQFYSHHEKDTRCLGATAQQFHRHKQLIRFLKRLDRNLWGLAGLNSCPVKEANQSTLENFLERLKTIMREKYSKCSS
Splenic T cells [2]
  persistence of pretreated T cells in vivo: improved persistence
